Data as given in US20210246204A1 (Alector, published 2021).

Experiments:
[1] = target: T1, human Siglec-7 on primary human monocyte-derived dendritic cells (human, UniProt Q9Y286 19-467); assay: flow cytometry, primary human dendritic cells
T1 construct: Endogenous Siglec-7 on dendritic cells differentiated from monocytes of healthy human donors
Description: The 12 humanized antibodies of S7AB were evaluated for binding to primary dendritic cells by flow cytometry. Monocytes were isolated from blood from healthy human donors using the RosetteSep™ monocyte isolation antibody cocktail (StemCell Technologies). The isolated monocytes were differentiated into dendritic cells with 100 ng/mL GM-CSF and 100 ng/mL IL-4 (Peprotech). Dendritic cells were incubated with dilutions of the anti-Siglec-7 antibodies for 30 minutes on ice in the dark, followed by a 30-minute incubation with a fluorescently-conjugated anti-human IgG secondary antibody. Cells were washed twice in FACS buffer (PBS+2% FBS, 2 mM EDTA), and flow cytometry was performed on a BD FACS Canto. Data were analyzed using FlowJo software (Ashland, Oreg.).

[2] = target: T1, human Siglec-7 on primary human …; assay: cell-based or functional assay
[3] = target: T2, histidine-tagged human Siglec-7 (NovoProtein) (human, UniProt Q9Y286 19-353); assay: BLI, antibody captured
T2 construct: Bought protein; also called recombinant human Siglec-7; recombinant Siglec-7; not shown: histidine tag
In short: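 Antibodies captured on anti-human or anti-mouse IgG Fc biosensors; His-tagged human Siglec-7 flowed at 0–100 nM (200 s association, 900 s dissociation). ka and kd from 1:1 multi-concentration fit; apparent KD = kd/ka.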

T2 sequence (Q9Y286 19-353 limits assumed): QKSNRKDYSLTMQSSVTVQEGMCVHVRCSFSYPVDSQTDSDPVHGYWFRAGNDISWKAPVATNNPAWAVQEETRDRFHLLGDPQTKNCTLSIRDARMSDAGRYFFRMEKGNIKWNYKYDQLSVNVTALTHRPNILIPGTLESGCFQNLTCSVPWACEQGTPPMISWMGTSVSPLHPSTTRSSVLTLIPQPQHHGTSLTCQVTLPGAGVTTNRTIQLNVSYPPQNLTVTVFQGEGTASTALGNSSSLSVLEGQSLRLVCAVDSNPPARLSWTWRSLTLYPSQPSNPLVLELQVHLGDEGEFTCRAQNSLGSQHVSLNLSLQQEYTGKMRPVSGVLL
T1 sequence (Q9Y286 19-467): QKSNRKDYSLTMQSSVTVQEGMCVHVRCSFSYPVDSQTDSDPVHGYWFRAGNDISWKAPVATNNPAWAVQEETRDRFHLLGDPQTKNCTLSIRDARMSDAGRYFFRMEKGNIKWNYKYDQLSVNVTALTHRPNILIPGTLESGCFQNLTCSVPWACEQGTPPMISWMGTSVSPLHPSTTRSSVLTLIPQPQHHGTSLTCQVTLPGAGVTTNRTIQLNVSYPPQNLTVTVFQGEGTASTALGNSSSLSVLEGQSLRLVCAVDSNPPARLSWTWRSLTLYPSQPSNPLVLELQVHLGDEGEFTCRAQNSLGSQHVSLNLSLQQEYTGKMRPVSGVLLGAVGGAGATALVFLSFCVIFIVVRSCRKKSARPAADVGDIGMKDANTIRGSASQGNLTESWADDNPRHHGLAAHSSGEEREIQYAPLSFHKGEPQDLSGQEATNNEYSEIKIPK

B1: S7AB-H1 (antibody, V domains shown)
VH: QVQLVQSGAEVKKPGASVKVSCKASGYAFTNCWMNWVRQAPGQGLEWMGRIFPGNGHTNYAQKFQGRVTMTRDTSTSTVYMELSSLRSEDTAVYYCARDYSDYYFDYWGQGTLVTVSS
VL: DIQMTQSPSSLSASVGDRVTITCRASQDINTYLNWYQQKPGKAPKLLIYYTSRLHSGVPSRFSGSGSGTDFTLTISSLQPEDFATYYCQQGNTLPWTFGQGTKLEIK
[1]
  EC50: 4.6 nM

B2: S7AB-H8.35 (antibody, V domains shown)
VH: QVQLVQSGAEVKKPGASVKVSCKASGYAFTEAWMNWVRQAPGQGLEWIGRIFPGYGHTNYAQKFQGRATLTEDTSTSTAYMELSSLRSEDTAVYYCARDYSDYYFDYWGQGTLVTVSS
VL: DIQMTQSPSSLSASVGDRVTITCRGSQDINTYLNWYQQKPGKAPKLLIYYTSRLHSGVPSRFSGSGSGTDYTLTISSLQPEDFATYYCQQGGTLPWTFGQGTKLEIK
[2]
  Fold increase in potency compared to AB-H8: 1.6 fold
  Fold increase in potency compared to Chimeric Ab: 5 fold
  Maximal downregulation (% Siglec-7 remaining): 9.3%
  Receptor downregulation, (EC50) (pM): 206 pM
[3]
  Kd: 0.607 nM
  fold improvement over S7AB-H8: 1.7 fold
  koff: 6.57e-05 s⁻¹
  kon: 108000 M⁻¹ s⁻¹

B3: S7AB-H8.36 (antibody, V domains shown)
VH: QVQLVQSGAEVKKPGASVKVSCKASGYAFTETWMNWVRQAPGQGLEWIGRIFPGLGHTNYAQKFQGRATLTEDTSTSTAYMELSSLRSEDTAVYYCARDYSDYYFDYWGQGTLVTVSS
VL: DIQMTQSPSSLSASVGDRVTITCRGSQDINTYLNWYQQKPGKAPKLLIYYTSRLHSGVPSRFSGSGSGTDYTLTISSLQPEDFATYYCQQGNVLPWTFGQGTKLEIK
[2]
  Fold increase in potency compared to AB-H8: 2.7 fold
  Fold increase in potency compared to Chimeric Ab: 8.2 fold
  Maximal downregulation (% Siglec-7 remaining): 11.4%
  Receptor downregulation, (EC50) (pM): 125 pM
[3]
  Kd: 0.605 nM
  fold improvement over S7AB-H8: 1.7 fold
  koff: 9.81e-05 s⁻¹
  kon: 162000 M⁻¹ s⁻¹

B4: S7AB-H8.37 (antibody, V domains shown)
VH: QVQLVQSGAEVKKPGASVKVSCKASGYAFTMAWMNWVRQAPGQGLEWIGRIFPGYGHTNYAQKFQGRATLTEDTSTSTAYMELSSLRSEDTAVYYCARDYSDYYFDYWGQGTLVTVSS
VL: DIQMTQSPSSLSASVGDRVTITCRGSQDINTYLNWYQQKPGKAPKLLIYYTSRLHSGVPSRFSGSGSGTDYTLTISSLQPEDFATYYCQQGNVLPWTFGQGTKLEIK
[2]
  Fold increase in potency compared to AB-H8: 4.8 fold
  Fold increase in potency compared to Chimeric Ab: 14.3 fold
  Maximal downregulation (% Siglec-7 remaining): 3.4%
  Receptor downregulation, (EC50) (pM): 71.4 pM
[3]
  Kd: 0.135 nM
  fold improvement over S7AB-H8: 7.8 fold
  koff: 2.5e-05 s⁻¹
  kon: 186000 M⁻¹ s⁻¹

B5: S7AB-H8.38 (antibody, V domains shown)
VH: QVQLVQSGAEVKKPGASVKVSCKASGYAFTGYWMNWVRQAPGQGLEWIGRIFPGLGHTNYAQKFQGRATLTEDTSTSTAYMELSSLRSEDTAVYYCARDYSDYYFDYWGQGTLVTVSS
VL: DIQMTQSPSSLSASVGDRVTITCRGSQDINTYLNWYQQKPGKAPKLLIYYTSRLHSGVPSRFSGSGSGTDYTLTISSLQPEDFATYYCQQGNVLPWTFGQGTKLEIK
[2]
  Fold increase in potency compared to AB-H8: 4.8 fold
  Fold increase in potency compared to Chimeric Ab: 14.5 fold
  Maximal downregulation (% Siglec-7 remaining): 17.1%
  Receptor downregulation, (EC50) (pM): 70.4 pM
[3]
  Kd: 0.324 nM
  fold improvement over S7AB-H8: 3.2 fold
  koff: 7.4e-05 s⁻¹
  kon: 229000 M⁻¹ s⁻¹

B6: S7AB-H8.39 (antibody, V domains shown)
VH: QVQLVQSGAEVKKPGASVKVSCKASGYAFTAAWMNWVRQAPGQGLEWIGRIFPGLGHTNYAQKFQGRATLTEDTSTSTAYMELSSLRSEDTAVYYCARDYSDYYFDYWGQGTLVTVSS
VL: DIQMTQSPSSLSASVGDRVTITCRGSQDINTYLNWYQQKPGKAPKLLIYYTSRLHSGVPSRFSGSGSGTDYTLTISSLQPEDFATYYCQQGNVLPWTFGQGTKLEIK
[2]
  Fold increase in potency compared to AB-H8: 6 fold
  Fold increase in potency compared to Chimeric Ab: 18 fold
  Maximal downregulation (% Siglec-7 remaining): 4.3%
  Receptor downregulation, (EC50) (pM): 56.8 pM
[3]
  Kd: 0.215 nM
  fold improvement over S7AB-H8: 4.9 fold
  koff: 3.56e-05 s⁻¹
  kon: 166000 M⁻¹ s⁻¹
